In patent US20240390418A1 (MINERVA BIOTECHNOLOGIES, published 2024):
Values belong to the binder of their own block, whether it stands above or below them.

B5: N-10 peptide (peptide)
peptide: QFNQYKTEAASRYNLTISDVSVSDVPFPFSAQSGA
notes: also called PSMGFR N-10; PSMGFR minus 10 amino acids from the N-terminus

Columns and labels:
[1] = target: T1, MUC1* expressed on HCT-116 cells transfected with MUC1* (extra cellular domain is just the PSMGFR sequence) (Homo sapiens (Human), UniProt P15941 1110-1255); experiment: denaturing Western blot of cell lysates (FIG. 72)
T1 construct: In Western blot rows the same protein stood denatured in cell lysate; also called HCT-MUC1*; HCT-FLR
T1 sequence: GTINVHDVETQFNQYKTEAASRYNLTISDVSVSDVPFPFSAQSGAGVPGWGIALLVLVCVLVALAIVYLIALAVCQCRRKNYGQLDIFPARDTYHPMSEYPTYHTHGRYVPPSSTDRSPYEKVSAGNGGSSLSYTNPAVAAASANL
Description: Antibodies were tested to determine whether they recognize a linear or a conformational epitope. Only antibodies that recognize a linear epitope work in Western blots when using denaturing gels. […] The antibodies tested for comparison are MNC2 and MNE6, which were known to only recognize a conformational epitope, SDIX which is a polyclonal antibody raised against PSMGFR and VU4H5, which is a commercially available monoclonal antibody that recognizes the tandem repeats of full-length MUC1 (FIG. 71A-71D). […] The SDIX polyclonal antibody recognizes HCT-MUC1* but not full-length MUC1 and VU4H5 only recognizes full-length MUC1. These same antibodies were also tested for their ability to work in Western blots of two breast cancer cell lines 1500, aka Zr-75-1, and T47D cells and show the same binding pattern (FIG. 71E-71H).
(§1) Antibodies that were raised against the PSMGFR peptide were tested the same way in Western blots (FIG. 72A-72P). […] Antibodies that were raised against the N+20/C-27 peptide were tested the same way in Western blots (FIG. 73A-73J). […] Antibodies 1E4 and 45C11 may recognize a conformational epitope. Antibodies that were raised against the N+9/C-9 peptide were tested the same way in Western blots (FIG. 74A-74H). […] These antibodies may recognize a conformational epitope.

[2] = target: T2, N+9/C-9 peptide; experiment: ELISA, peptide on plate (FIG. 64)
T2 peptide: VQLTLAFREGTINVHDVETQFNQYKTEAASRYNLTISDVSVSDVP

[3] = target: B5; experiment: peptide ELISA, told in tissue legend
[4] = target: T3, PSMGFR peptide; experiment: peptide ELISA, told in tissue legend
T3 construct: also called MUC1* peptide
T3 peptide: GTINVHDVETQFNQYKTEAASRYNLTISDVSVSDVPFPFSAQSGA

[5] = target: T4, C-10 peptide; experiment: ELISA, peptide on plate (FIG. 64)
T4 construct: also called PSMGFR C-10; PSMGFR minus 10 amino acids from the C-terminus
T4 peptide: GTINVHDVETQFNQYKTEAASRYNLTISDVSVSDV

[6] = target: B5; experiment: ELISA, peptide on plate (FIG. 2B-2C)
[7] = target: T5, N+20/C-27 peptide; experiment: ELISA, peptide on plate (FIG. 63)
T5 peptide: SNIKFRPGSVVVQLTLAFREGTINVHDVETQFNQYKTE
Description: ELISA assays were performed to determine if, in addition to recognizing their immunizing peptide, they recognized PSMGFR, N-10 or C-10. In addition, they were tested for their ability to bind to N+20/C-27, N+9/C-9. We first did the ELISA assay on our set of reference antibodies, MNC2, MNE6, which we know are cancer-specific plus MNC3, which we know recognizes stem cells and progenitor cells (FIG. 63A-63B). None of the reference antibodies bound to the N+20/C-27 peptide. MNC2 and MNE6 cannot bind to PSMGFR peptides with 27, 10 or 9 C-terminal deletions, however, MNC3 binds to C-10 and to N+9/C-9 peptides.

[8] = target: T1, MUC1* expressed on HCT-116 cells …; experiment: flow cytometry, HCT-116 cells transfected with MUC1* (FIG. 35B)
[9] = target: T3, PSMGFR peptide; experiment: ELISA, peptide on plate (FIG. 2B)
Description: FIGS. 2A-2I show results of ELISA assays. MUC1* peptides PSMGFR, PSMGFR minus 10 amino acids from the N-terminus aka N-10, or PSMGFR minus 10 amino acids from the C-terminus, aka C-10 are immobilized on the plate and the following are assayed for binding: NME7-AB (FIG. 2A), MNC2 monoclonal antibody (FIG. 2B), MNE6 monoclonal antibody (FIG. 2C), or dimeric NME1 (FIG. 2D). […] MUC1* peptides PSMGFR minus 10 amino acids from the N-terminus aka N-10, or PSMGFR minus 10 amino acids from the C-terminus, aka C-10, are immobilized on the plate and the following are assayed for binding: MNC3 (FIG. 2E) and MNC8 (FIG. 2F).

[10] = target: T3, PSMGFR peptide; experiment: ELISA, peptide on plate (FIG. 201A)
Description: (§2) FIG. 201A-201C show graphs of ELISA assays to determine the binding of another set of antibodies generated by immunizing animals with the PSMGFR peptide. […] F3, B12, B2, B7, B9, 8C7F3 and H11 all bound to the PSMGFR peptide and to the N-10 peptide.
(§3) This same ELISA assay was performed on the antibodies of the invention (FIGS. 64-66 and FIG. 201). Note that only 20A10 exactly matches the binding profile of MNC2 and MNE6. 25E6, 28F9 and 18G12 are all able to bind to the N-10 peptide. 18B4 is the only antibody raised against the PSMGFR peptide that requires the 10 most N-terminal amino acids of the peptide. The color of the bars for each antibody in the ELISA graph are color coded to match the deductive cognate sequence, or a portion thereof, of that antibody. In addition, another set of antibodies was assayed by ELISA (FIG. 201). Of this set, B12, B2, B7, B9, 8C7F3, and H11 bound to the PSMGFR peptide, bound to the N-10 peptide, but not to the C-10 peptide (FIG. 201). Although these antibodies were raised against the N+20/C-27 peptide, all but one, 45C11, still bind to the PSMGFR peptide, albeit at the N-terminal portion of PSMGFR.

[11] = target: B5; experiment: ELISA, peptide on plate (FIG. 201B)
Description: as §2, §3

[12] = target: T4, C-10 peptide; experiment: ELISA, peptide on plate (FIG. 201)
[13] = target: B5; experiment: peptide ELISA
[14] = target: T3, PSMGFR peptide; experiment: peptide ELISA
[15] = target: T1, MUC1* expressed on HCT-116 cells …; experiment: denaturing Western blot of cell lysates, longer exposure (FIG. 72G, 72H, 72O, 72P)
Text: All these antibodies were raised against the PSMGFR peptide and bind to the PSMGFR peptide. […] FIG. 72A and FIG. 72I show 20A10. FIG. 72B and FIG. 72J show 25E6. FIG. 72C and FIG. 72K show 18B4. FIG. 72D and FIG. 72L show 18G12. FIG. 72E and FIG. 72M show 28F9. FIG. 72F and FIG. 72N show 3C2B1. FIG. 72G and FIG. 72O show 5C6F3. FIG. 72H and FIG. 72P show 5C6F3 wherein the blot has been exposed for a longer time period to render more visible the MUC1* specific bands.
as §1

[16] = target: T6, NME7AB (Homo sapiens (Human), UniProt Q9Y5B8 92-376); experiment: ELISA, peptide on plate (FIG. 2A-2D)
T6 construct: NME7A in the text appears to be NME7AB; also called NM23-H7; NME7A
T6 sequence: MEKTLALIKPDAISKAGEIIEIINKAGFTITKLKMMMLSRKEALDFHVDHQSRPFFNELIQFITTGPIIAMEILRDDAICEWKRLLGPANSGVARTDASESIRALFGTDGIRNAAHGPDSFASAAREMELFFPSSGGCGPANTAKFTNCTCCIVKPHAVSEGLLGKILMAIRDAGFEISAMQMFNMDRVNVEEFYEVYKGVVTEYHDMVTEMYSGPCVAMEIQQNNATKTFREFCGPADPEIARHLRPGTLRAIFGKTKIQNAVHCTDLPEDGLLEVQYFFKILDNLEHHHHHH

[17] = target: T3, PSMGFR peptide; experiment: ELISA, peptide on plate (FIG. 65)

binding result [1]: binds
binding result [2]: binds
binding result [3]: binds
binding result [4]: binds
B1: monoclonal antibody 25E6 (antibody, V domains shown)
VH: EVQLVESGGDLVKPGGSLKLSCAASGFTFSSYGMSWVRQTPDKRLEWVATISNGGRHTFYPDSVKGRFTISRDNAKNTLYLQMSSLKSEDTAMYLCVRQTGTEGWFAYWGQGTLVTVSA
VL: not shown
notes: Raised against PSMGFR; also called MN25E6; anti-PSMGFR antibody 25E6

binding result [2]: no binding
binding result [5]: no binding
binding result [6]: binds
binding result [7]: no binding
binding result [8]: binds
binding result [9]: binds
B2: mouse monoclonal antibody MNC2 (antibody, V domains shown)
VH: EVQLEESGGGLVKPGGSLKLSCAASGFTFSGYAMSWVRQTPEKRLEWVATISSGGTYIYYPDSVKGRFTISRDNAKNTLYLQMSSLRSEDTAMYYCARLGGDNYYEYFDVWGAGTTVTVSS
VL: DIVITQSTASLGVSLGQRATISCRASKSVSTSGYSYMHWYQQRPGQPPKLLIYLASNLESGVPARFSGSGSGTDFTLNIHPVEEEDAATYYCQHSRELPFTFGGGTKLEIKR
notes: Mouse monoclonal raised against the PSMGFR peptide; also called Min-C2; MNC2-scFv (label in some tissue legends)

binding result [10]: binds
binding result [11]: binds
binding result [12]: no binding
B3: monoclonal antibody H11 (antibody, V domains shown)
VH: EVVLVESGGGLVEPGGSLKLSCVASGFAFSTFAMSWIRQTPEKRLEWVAAISNGGGYTYYPDTLKGRFTISRDNAKNTLYLQMSSLRSEDTAVYYCARRYYDLYFDLWGQGTSLIVSS
VL: DILMTQTPLSLPVSLGDQASISCRSSQNIVHSNGNTYLEWYLQKPGQSPKLLIYKVSNRFSGVPDRFSGSGSGTDFTLKISRVEAEDLGVYYCFQDSHVPLTFGAGTRLELK
notes: Raised against PSMGFR

binding result [13]: binds
binding result [14]: binds
binding result [15]: binds
B4: monoclonal antibody 5C6F3 (antibody, V domains shown)
VH: EVMLVESGGGLVKPGGSLKLSCAASGFTFSTYAMSWVRQTPEKRLEWVAAISNGGGYTYYPDSLKGRFTISRDNAKNTLYLQMSSLRSEDTATYYCARRYYDHYFDYWGQGTALTVSS
VL: DVLMTQTPLSLPVSLGDQASISCRSSQTIVHSNGNTYLEWYLQKPGQSPKLLIYKVSNRFSGVPDRFSGSGSGTDFTLKISRVEAEDLGVYYCFQDSHVPLTFGAGTKLELK
notes: Raised against PSMGFR; also called MN5C6F3; anti-PSMGFR antibody 5C6F3

Binder: B5
binding result [16]: binds

binding result [13]: no binding
binding result [17]: no binding
B6: monoclonal antibody 45C11 (antibody, V domains shown)
VH: EVQLQQSGADLVKPGASVKLSCTASGFNIKDTFMHWVKQRPEQGLEWIGRIDPANGNTKYDPKFQGKATITADTSSNTAYLQLSSLTSEDTAVYYCAKPYGNYGYYYALDYWGQGTSVTVSS
VL: DVQITQSPSYLAASPGETITINCRASKSISKYLAWYQEKPGKTNKLLIYSGSTLQSGIPSRFSGSGSGTDFTLTISSLEPEDFAMYYCQQHNEFPWTFGGGTKLEIK
notes: Raised against the N+20/C-27 peptide; also called N+20/C-27 antibody 45C11
